# What was measured:
# [1] = Temperature shift experiment on production yield of Neu5Ac; format: biochemical; conditions: shifting reaction temperature from 23° C. to 4° C.; 50 mM pyruvate, 5 mM ManNAc
# Description: The effect of substrate ratio on the conversion yield of Neu5Ac was studied by varying the pyruvate concentration while the concentration of ManNAc was kept constant. The pyruvate concentration ranged from 2.5 to 70 mM, whereas the ManNAc concentration was 5 mM, resulting in a pyruvate:ManNAc ratio ranging from 0.5 to 14. The condensation reaction mixture containing different ratios of pyruvate and ManNAc along with 124 mM HEPES buffer pH 8.0 and enzyme was incubated at room temperature for 7.5 h. […] Thus, a temperature shift experiment was carried out to see how much the Neu5Ac production could be increased by altering the equilibrium once it had been achieved. For a temperature shift experiment, the reaction mixture (enzyme, 50 mM pyruvate, 5 mM ManNAc, 124 mM HEPES buffer pH 8.0) was incubated at room temperature for 7.5 h and after reaching equilibrium it was shifted to 4° C. and incubated for 15 h. As a control, one reaction was kept at room temperature and another at 4° C. for all the time. The difference in yield between the temperature shifted and non-shifted reactions were calculated. The standard TBA assay was used to assess the activity.
# [2] = Comparative specific activity, condensation reaction (TBA assay); format: biochemical
# Description: Both the condensation and cleavage activities of NAL were assessed using the modified thiobarbituric acid (TBA) assay developed by Aminoff (1961) and Warren (1959). The condensation activity was determined by incubating 50 μl of a reaction mixture containing 15 mM sodium pyruvate, 15 mM ManNAc, 124 mM HEPES pH 8.0 and different concentrations of enzyme depending on assay type at selected temperatures for the required amount of time. The reaction was terminated by adding 137 μl 2.5 mg/ml sodium periodate in 57 mM H2SO4, followed by incubation at 37° C. for 15 min with shaking at 1350 rpm. Sodium arsenite (50 μl, 25 mg/ml sodium arsenite in 0.5 M HCl) was added resulting in brown color. The tubes were shaken manually until the brown color disappeared. 2-thiobarbituric acid solution (100 μl, 71 mg/ml adjusted to pH 9.0) was subsequently added, and the tubes were incubated in boiling water for 7.5 min. The tubes were incubated on ice for 5 min and allowed to remain at room temperature for 5 min. The red chromophore was extracted by addition of acidic butanol (1 ml of acidic butanol with 5% HCl) and horizontal shaking for 10 min. Tubes were centrifuged at 16060×g, 7 min (room temperature) to separate the organic and inorganic phases. The organic phase containing the red chromophore (200 μl) was used for measurement of absorbance at 549 nm in a spectrophotometer (SpectraMax M2e, Molecular Devices). The amount of Neu5Ac produced was inferred from a standard curve. To generate a standard curve, different concentrations of Neu5Ac (0.031 mM-1 mM) were treated with 137 μl of 2.5 mg/ml sodium periodate in 57 mM H2SO4 and the TBA assay procedure was followed as described above.
# Standard reaction mixtures were incubated at room temperature for 1 h before being subjected to the TBA assay.
# [3] = Integrated reaction: Neu5Ac production from GlcNAc and pyruvate at alkaline pH (TBA assay); format: biochemical
# Description: For ManNAc reactions, the buffer used was HEPES, pH 8.0. […] Experiments were performed in triplicate. For ManNAc experiments, aliquots were sampled after 0.5, 1.0, 1.5, 2.5 and 4.0 h. For GlcNAc experiments, aliquots were sampled after 12, 24, 36, 48 and 72 h. Reactions were terminated by addition of 2 μl concentrated H2SO4. The time needed for N-acetylneuraminic acid (Neu5Ac) production to get started under these conditions was known to take longer time based on initial test experiments. The thiobarbituric acid (TBA) assay procedure was followed to determine the amount of Neu5Ac produced. The activity was corrected for a blank value. The blank contained all the reaction components except for enzyme.
# Initially, also glycine buffer was tested at pH 10.5 and pH 11.0 for the reactions with GlcNAc. GlcNAc will chemically epimerize to ManNAc at pH values above 9.0, which the enzyme will use as substrate for the production of Neu5Ac. The epimerization is pH dependent and will increase with increasing pH. Production of Neu5Ac was higher in CAPS buffer compared to glycine buffer, so this was chosen for further experiments.
# [4] = Long term stability at different pH (condensation activity after one month); format: physicochemical
# Description: Long term stability of AsNAL at different pH was studied by incubating the enzyme at pH values from 6.0 to 11.0 at room temperature for a month. Buffers used were Sodium phosphate (pH 6.0-7.0), HEPES (pH 7.0-8.0), Tris-HCl (pH 8.0-9.0) and glycine (pH 9.0-11.0). The enzyme activity in the condensation direction was measured using the standard reaction mixture incubated at room temperature for 1 h, with subsequent TBA assay. The stability of AsNAL at different pH was also studied using the thermofluor method described by Ericsson et al. (2006) where increased or decreased stability is related to the increase or decrease in the melting temperature of the protein. For the thermofluor assay, the protein was dialyzed overnight at 4° C. against a buffer containing 10 mM HEPES pH 7.5, 150 mM NaCl and 2 mM β-ME in Pierce Slide-A-Lyzer dialysis cassettes with a 3.5 kDa cutoff. The dialyzed protein was mixed with 2 μl of 300× Sypro® Orange protein gel stain (Sigma) and 100 mM of different buffers ranging from pH 5.0 to pH 9.0. Thermal shifts were screened for by heating in an iCycler iQ Real Time PCR Detection System (Bio-Rad Laboratories) from 1 to 80° C. in increments of 1° C./min. The buffers tested were: Sodium acetate (pH 5.0), Phosphate citrate (pH 5.0-5.5), Sodium citrate (pH 5.5), MES (pH 6.0-6.5), Na-cacodylate (pH 6.0-6.5), Sodium dipotassium phosphate (pH 6.5), BisTris (pH 7.0), HEPES (pH 7.0-8.0), Tris-HCl (pH 7.5-8.5), Imidazole (pH 7.5-8.0), Bicine (pH 8.5) and BisTris propane (pH 8.5-9.0).
molecule,measurement,setting,value
"AsNAL: N-acetylneuraminate lyase isolated from the psychrophilic bacterium Aliivibrio salmonicida LFI1238, recombinantly expressed in E. coli (protein, listed as Aliivibrio salmonicida) MKKLTGLIAAPHTPFDSSSNVNFEEIDKIAKHLINDGVKGIYVCGTTGEGIHCSVEERKAIAERWVSACNHKLDIIVHTGALSIVDTLELTRHADTLDILATSAIGPCFFKPGSVSDLVEYCATIAAAAPSKGFYYYHSGMSGVNLNMEEFLIQADKRIPNLSGLKFNSGDLYEYQRCLRACDGKFDVPFGVDEFLPGALAVGAKSAVGSTYNYAAPHFNSIIEAFNKGDHDAVFNKMTNVIELIRVLVEFGGVAAGKIAMELHDINAGDPRLPLMPLSAEQKLTVVEKMRAANFLK",increase in yield of Neu5Ac,[1],30%
same,"specific activity of the condensation reaction, higher than EcNAL",[2]; 4° C.,40%
same,"specific activity of the condensation reaction, higher than EcNAL",[2]; 23° C.,60%
same,"specific activity of the condensation reaction, higher than EcNAL",[2]; 37° C.,40%
same,production of Neu5Ac relative to highest amount obtained with pyruvate and ManNAc 4:1 at pH 8.0,"[3]; pyruvate and GlcNAc 4:1, CAPS pH 11.0, 48 h",around 60%
same,production of Neu5Ac (in words),"[3]; pyruvate and GlcNAc, CAPS pH 11.5",able to produce Neu5Ac in the same range as at pH 11.0
same,decrease in activity (condensation) after one month,"[4]; Glycine pH 11.0, room temperature",3.3%
same,decrease in activity (condensation) after one month,"[4]; HEPES pH 8.0, room temperature",14.5%
same,decrease in activity (condensation) after one month,"[4]; Phosphate pH 7.0, room temperature",15%
same,decrease in activity (condensation) after one month,"[4]; Tris-HCl pH 8.0, room temperature",14%
same,decrease in activity (condensation) after one month,"[4]; Tris-HCl pH 8.5, room temperature",6.4%
same,decrease in activity (condensation) after one month,"[4]; Tris-HCl pH 9.0, room temperature",4%
same,activity retained after storage compared to initial activity,"[4]; all measured pH (6.0 to 11.0), one month, room temperature",More than 83%
